Results from the DeepSol protein solubility set.

Assay: soluble on expression in E. coli; label from the status in PepcDB or PDB records

Sequence | soluble on expression in E. coli
LNLSGLSLSCEYQPFVCPHTKHIHGYEALARFYLGQGQAIAPNLVFEQLHENSNALAAVEFQAKTFQLKHAPARQSLFVNVDPHAANGVHTQKLLDLLSSHPQLTVEIIENTCISDAELANQLFHQFKTANLNVALDDIGAPHSMLSVDLMMNVDYLKFDRHWLNLVAEPHGIALLSALIEFGKRTGKQCILEGIETEAQLQLARELNVDLVQGFLFKP | not soluble
MGSDKIHHHHHHMRFLAYFGHLNIDVLISVDSIPREGSVNVKDLRPRFGGTAGNFAIVAQKFRIPFDLYSAVGMKTHREYLAMIESMGINTGHVEKFEDESGPICYIATDGKKQVSFMHQGAMEKWKPQLADEYEYVHFSTGPNYLDMAKSIRSKIIFDPSQEIHKYSKDELKKFHEISYMSIFNDHEYRVFREMTGLSSPKVTTIVTNGERGSSLFMDGKKYDFPAIPSSGDTVGAGDSFRAGLYLALYNRRSIEKGMIYGTIIAHHVIDDGIENFSLNMEDLERETENYRRMFTKRS | not soluble
ARYLDVTSRRDPEHSHRTYYVTGQVFFASADRFTASFDLREKVETLAIDLREAHFWDITAVAALDKVVLKLRRAGISVDVVGMNRATATLVDRFGVHDKPDGIDSLMGH | not soluble
MNVNAETEDATLLLDGLLQNVAIIRFDTNKKVTYANALFAEAMGYTEEEMLQLSHPDLCFPDFVQTASYKEMWTNLLAGQKFQNKIERKNARGERVWFEATYIPIIREETVVGVAKIATDIT | not soluble
MAHHHHHHMWQTVVRRYRLQPTSLAAFLESNCMVAKPPTAALHSDSNLVVAETNSLSIFENLAAEESLIRGLSLDTKQRLLLFYVNRPCVVVGRNQNIFQEVSLRRAAADGVCVARRASGGGAVFHDEGNLCFSFITHRTRYAPEKTIQLVRLGLCASYAIDPARLTTTGRHDLFLDGRKITGSAMRVQRDIAYHHCTLLVDTPHASVGRYLRPEGDYVAFKTSSVGSVRSPVTSLAESGCIADGPGAVAALKGNMADFFLAEGDRVLNAATPWELDAVELRQRFTTARHRCANAPLFALDVVGAVAADMPFIEREGRQPARGDAATLGEAVHKAASKEWAYAMPTFTSTVFLSDSELRRRLKTLSVRQHVALLCSLAEEELLAVLQRCVLEGSEGPEAVAGTEAGLHLVTTVEHRLVTSVVVRRVAPTTATASAVAPSSASSGGWVQRYLSALLVGHPCDAAIEGLECVGDTTAVVQGLVHEAGSLCPDLPDAVGDAALLMVARVLLDVWRDKNVFDIAT | not soluble
IKDWTWKMGGNISYNKNKVVTLPDNGQPKNRIGGQQIYTGRKVLDEAGNQVDEVIFVGGKQEGQEPGILVGYKAEGLYKDWKDIPGDLVVKTGNYQGKYQYGPKAYAALSDAEKAKALQIEPGDVKWKDINNDGTIDAFDQIVIGNTTPHWFGGFNTTLTWKGLTLYGRFDFALDYWIYDNTTPWFLGCMQGGYNTTTDVFNTWSEENPNAKYPRYVWADQLGTANYYRTSTMFAYKGNYLAIREISLSYSLPQNIARKFYCQKLDVSVTGQNLGYITSANVATPEVSSAGSGYALPRTLLFGINVTF | not soluble
MGSDKIHHHHHHMTNVIIEKISAKEVFKGAKIKVMITTMTNISIGYDIIEVNNPEEAIADVENVIAPELIGYPATDIDFIDSLICETSVNNPTVAMGISISVARAASNSLDIPLFKFLGGALTTELPIVASGILVDKDKNELIPIVMADSIEDIVNLYLKLTDVLSHDYSIVNIDGAYTCKDIFNEIPKIRNLIDEIKEDEDLDILLGLSSKKETVKDKDLSQIDYLEVEEPVEFDGFLCTDSIYEESDFVKVFPYEMGTITEMYYYINYIMDKGLYPVIFGNNSSFAHIAVSFKVPFLRPKLSSNVLNEVWNIERTIMNPNIRRF | not soluble
MKKVKLIGTLDYGKYRYPKNHPLKIPRVSLLLRFKDAMNLIDEKELIKSRPATKEELLLFHTEDYINTLMEAERSQSVPKGAREKYNIGGYENPVSYAMFTGSSLATGSTVQAIEEFLKGNVAFNPAGGMHHAFKSRANGFCYINNPAVGIEYLRKKGFKRILYIDLDAHHCDGVQEAFYDTDQVFVLSLHQSPEYAFPFEKGFLEEIGEGKGKGYNLNIPLPKGLNDNEFLFALEKSLEIVKEVFEPEVYLLQLGTDPLLEDYLSKFNLSNVAFLKAFNIVREVFGEGVYLGGGGYHPYALARAWTLIWCELSGREVPEKLNNKAKELLKSIDFEEFDDEVDRSYMLETLKDPWRGGEVRKEVKDTLEKAKASS | soluble
MENTNEAAWILSIDKFRHNEGIINFSDQNRETAYHHTIKEINVALDNFSTKAGDNNMHLVKAKTSQGTELNWHGKFSLSPLKSSGDISFVSPLKIVSDYLQQRILFNITEGSLKVNSHYDFNFAGEQPQFIINNLMASISALEIRSRDDNKKIITSDELSVDLEQLSSLEHHHHHH | not soluble
MSDNLVLPTYDDVASASERIKKFANKTPVLTSSTVNKEFVAEVFFKCENFQKMGAFKFRGALNALSQLNEAQRKAGVLTFSSGNHAQAIALSAKILGIPAKIIMPLDAPEAKVAATKGYGGQVIMYDRYKDDREKMAKEISEREGLTIIPPYDHPHVLAGQGTAAKELFEEVGPLDALFVCLGGGGLLSGSALAARHFAPNCEVYGVEPEAGNDGQQSFRKGSIVHIDTPKTIADGAQTQHLGNYTFSIIKEKVDDILTVSDEELIDCLKFYAARMKIVVEPTGCLSFAAARAMKEKLKNKRIGIIISGGNVDIERYAHFLSQ | soluble
SSGRSVRAETRSRAKDDIKKVMAAIEKVRKWEKKWVTVGDTSLRIFKWVPVTDSKEKEKSKSNSSAAREPNGFPSDASANSSLLLEFQDENSNQSSVSDVYQLKVDSSTNSSPSPQQSESLSPAHTSDFRTDDSQPPTLGQEILEEPSLPSSEVADEPPTLTKEEPVPLETQVVEEEEDSGAPPLKRFCVDQPTVPQTASES | soluble
GPGSMLRLGQPTLTAMRCVPAASASATAVAPTTSYPSTSAALLANTRAIHGEVRHQNTDYDNTRIPWDFTTSSYEKIHNEILPKFPRGRRISATIPLLHLAQQQQGGYIPVTAMYKIAKICEVPPMHVFETVTFYSMFNRHPVGKYHIQFCRTTPCMLCGADELMERTMHYLNVRMHGTTSDGLITIGEMECLGACVNAPMLVVSDYSNPPNFSYDYMEDLTWESIKTLVENLRGGKPFKIGSQRLDRRYAEPAGGRTSLLFKEPPGPYCRDFDAEPDKKADAASPKK | not soluble
MSLTDEPKLLAEPREGVPNVIDTLPAFRDYCSELASSHGSLAADAERASGFRYGHEDWLVQFKRDGAGIGLLDPQALAAAGADWNDFNRAVGDAVWILHDSLQDLPGFDELGMEPQRLFDTEIAARLLGLKRFGLAAVTEHFLGLTLAKEHSAADWSYRPLPRDWRNYAALDVELLIELETKMRAELKRQGKMEWAQEEFDYALKEGLGPRKEHLIPWMHVSHITEVMRDRQALAIVRALWTRRDELAREYDIAPTLLLSDSSIIEVAKRKPHNAAQFRSIRSINERVRIHTDSEQDKMFERYAPIQRKIKPSMWKNIIQDALALPPSEWPDVDGGAARRHESQSASAPKSIRVWKERYPERLQVLNRVRKAVSQIAEDTRTPVEIVIKPQYLRNLCWTDEPRKRDVARFLSEQGARDWQVSLVAESVSRAIEGHHHHHH | soluble
MSLGLINPDFQTLPELFTSVFSHFKGQPDKAPIARKINGAYSPISYDSLAEDCRHFAAYLKERGIEPGDRVAILSENRPGWYLADIAILSLGATDVPLYPSLPPNQIEYILNNCSAKGIIVSNMLQLGKILSIWPKLPELNMVIVMNKLDEPVEDVIDLSQAKTEGKKVLEAKPWLLDGIKSNPDDVATLIYTSGTTGLPKGVMLTHRNICENVKSCSTVIRIDQTDSSLSFLPLSHAYERTGGYYLMFACGARINLAESVETISLNISEAKPTIIFTVPRLFDRMKASILKSVTSEGGVKEKIFFWAVSTGEKYHKQLATGKVSPLLAVQHNLADKLVYSKIRKKFGGKLRYFVSGGAALPQKTGEFFQSIGITILEGFGLTETSPVTNVNRPEKVKFGTVGLPVKNVEVKIAPDGEIMLKGPNIMKGYWKDEAASAEVLRDGWLYTGDIGEVDSEGYLKITDRKKHIIVTSGGKNIAPLQIENLILDSPYVDQAMIVGEKRPFLIALIVPDFLKLRDFAAEHQIKASSTKELINTKEVIEVYEKLLKSISRQLATHEKVRKFLLLEEPFSIENGMMTPTLKLKRKEITTKFSAEIDNLYNTLNMVYNTEGHHHHHH | soluble
AAKEEADSRISPGNIFEEKAKFLVMMESSIYAAKRGDALIAQILILAGRLSKNEAPKEALLFMEKTITGEIDLSVAKNLLIAYMRIRREEKQRDLNSVKNDDAIPSDINIDDLTNT | not soluble
MGSDKIHHHHHHMSVVIGYYGKNGAVIAGDKRNLLFNGIESNRAKLEEVLYSGEIKNDEELFKKASEFEVTVHINDTREKVKSLGNLLSGEVVSIGKDSKRRRMYLTKEKCAIIDIENDQITNKSVKTGSGIVVFGNRYVKHFVESEIKKHVQKLLKMSAREIRDLFEKILKNIENATLSDTFEYYVVEAGEPEFEKAVNKDLDDLFNYRHDLSIKMAEMQILTMIAEKIVKIGDVGVIKNGTLVLYDEFLAINKICPEPEIYSEIEITGEFIEGDIITIDNESLKVKRTGSPVAVQKIICKK | not soluble
MSLDNGEAAIIIGEFYKRNDQWKFRALSEGSAYGLSAFGRKIGLEVDDRHPRRPSGGSGGPAGGPRHESATGTAFVVGPAHVMTCAHVIEDMGVFYINSLEGRYKAEAVVIDRRNDIALLRVQGAPPLSAVTFREGQGCEPGDTVAVLGYPLASISGGGLQVTQGGISGLFGLHNDASLFQFTAPIQPGSSGSPLFDNGGAVIGMVTSTVPDGQNMNFAVKSALLMSFLQACRIDEGHHHHHH | not soluble
QPPQFKLDPRLARLLGIHTQTRPVIIQALWQYIKTHKLQDPHEREFVLCDKYLQQIFESQRMKFSEIPQRLHALLMPPEP | soluble
MAYKKVLLAVNVYENADIVINSAVDFAKKNNTQVLKVVTVIDCVAPFAPSIVDFQHSIEQEAKEALDKLVTKISGIKVEHEVLVGNPAAEIVEYAEESNCDVIVLGSHATHGINLLLGSVANTVLHKAKCDVLTVRVNDDENADSKAHSYKRLLVPTDLENDSYVVVDKAKDIAKLYSAKIDTAFVIPNDSISLMTYETDKVETTLDKFAEKNGITGEKSVMIGGISNSLLEKAAENKNDLIVVGSHRRGAIGRFFLGSTANSILHQANVDVLVVRLK | soluble
ESSDHLRLVAWYIPVKNSKRTVVLAHGFAGNKGLMGAWAGMYHELGYNVLVPDSRASGASQGKAVGYGWLERRDDLQWAKTVVHKTATTQIVMSGISMGAAGMTMASGERQLPQIKAYVVDSPFTSADAIISYQAGQLYHLPAFPLVNVTSLITKLRAGYSFKEADAVAQIRKNHLPIMIISGTRDDFVPTSMGKTLYRNAHQPKSLWLVKGAGHTTAITQNYQRYKRHVTAFLEQYVQ | not soluble
MGSDKIHHHHHHMVTRITINRGKRCVDEADRCHNRWHPDIEPAAEVDPGDIVVIETRDALDGQITANPGVDDVASADLNVVHPLTGPVYVRGAKPGDLLVVEVLDIKAEPFGFTVAIPGFGFLRDLFDKPYKIRWRIEGGYAFSEDLPNVRIPGDPFLGVMGVAPSKELLKEIKEREDRLLKRGGFVLPPTPEGAVPPREPVASEGLRTIPPRENGGNLDVRHFSPGSKIYFPVFVEGALFSVGDAHYAQGDGEVCGTAIEMGATATLRFGVISEGAKKYGIRFPIFKPSESSVRRFTHSKHVAVTGVGVIDSLNESENATLSAKHALLNLINLLEKAGYTREQAYLLASVAADLRLSQLVDVPNFTVTAFLPLDIFIEPPEVLKKLAE | not soluble
